Assay results published in the supplement of paper PMC6755084.

B1: F1*; the commonest letter at each place (parent)
chain: GAGACCGCAACTGAAAAGTTGTTATCACTTGTCGTAAGACACTTTGGATGGGTTGAAGTTCTGCACGTAGAAGCAAAAGGC

Variants of: B1
Assay: fraction ligated after 30 min (ligated reads / total reads); higher = more ligase activity
Details: with F1*sub RNA substrate (template-directed ligation), 42 °C
Summary of the method: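 Templates from an oligo pool were PCR-amplified, transcribed with T7 and gel-purified to give the ribozyme variants. Ligated and unligated products were separated on gel, reverse transcribed using barcoded primers, and read on a MiSeq. A quality filter of ≥20 was applied to core bases. Fraction ligated was taken as ligated reads as a share of all reads per variant.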

Row | Variant | fraction ligated
1 | G31C G34A | 0.78
2 | G31C G34C | 0.804
3 | G31C G34T | 0.778
4 | G31T | 0.793
5 | G31C | 0.79
6 | G31C A39C | 0.779
7 | G31C A39T | 0.778
8 | G31C A39G | 0.777
9 | G31C T49G | 0.0675
10 | G31C T49C | 0.0658
11 | G31C T49A | 0.0574
12 | G31A G46A | 0.845
13 | G31A G46C | 0.524
14 | G31A G46T | 0.777
15 | G31A G50A | 0.025
16 | G31A G50C | 0.0295
17 | G31A G50T | 0.195
18 | G31C A41C | 0.492
19 | G31C A41G | 0.779
20 | G31C A41T | 0.732
21 | G31T C33G | 0.808
22 | G31T C33T | 0.777
23 | G31T C33A | 0.831
24 | G31T T43C | 0.78

Row | Variant | fraction ligated
25 | G31T T43A | 0.778
26 | G31T T43G | 0.76
27 | G31T A37C | 0.78
28 | G31T A37T | 0.815
29 | G31T A37G | 0.792
30 | G31C T32A | 0.803
31 | G31C T32C | 0.796
32 | G31C T32G | 0.78
33 | G31C C40G | 0.796
34 | G31C C40T | 0.791
35 | G31C C40A | 0.793
36 | G31T A36G | 0.798
37 | G31T A36T | 0.785
38 | G31T A36C | 0.769
39 | G31A G55T | 0.767
40 | G31A G55A | 0.823
41 | G31A G55C | 0.205
42 | G31A T35G | 0.763
43 | G31A T35A | 0.823
44 | G31A T35C | 0.813
45 | G31T A39T | 0.792
46 | G31T A39G | 0.754
47 | G31T A39C | 0.769
48 | G31A T43A | 0.815

Row | Variant | fraction ligated
49 | G31A T43G | 0.807
50 | G31A T43C | 0.797
51 | G31T A48T | 0.0299
52 | G31T A48C | 0.292
53 | G31T A48G | 0.49
54 | G31A G47C | 0.0647
55 | G31A G47T | 0.0708
56 | G31A G47A | 0.54
57 | G31T T35A | 0.797
58 | G31T T35G | 0.803
59 | G31T T35C | 0.782
60 | G31C A56G | 0.607
61 | G31C A56T | 0.694
62 | G31C A56C | 0.155
63 | G31T G47C | 0.0376
64 | G31T G47A | 0.246
65 | G31T G47T | 0.022
66 | G31C C42T | 0.786
67 | G31C C42A | 0.82
68 | G31C C42G | 0.79
69 | G31T G46C | 0.681
70 | G31T G46A | 0.79
71 | G31T G46T | 0.769
72 | G31T T32C | 0.816

Row | Variant | fraction ligated
73 | G31T T32A | 0.835
74 | G31T T32G | 0.826
75 | G31C A36T | 0.79
76 | G31C A36G | 0.682
77 | G31C A36C | 0.357
78 | G31C T35A | 0.796
79 | G31C T35G | 0.8
80 | G31C T35C | 0.769
81 | G31T C40T | 0.829
82 | G31T C40A | 0.827
83 | G31T C40G | 0.83
84 | G31T G55T | 0.759
85 | G31T G55C | 0.176
86 | G31T G55A | 0.813
87 | G31C G38T | 0.819
88 | G31C G38C | 0.778
89 | G31C G38A | 0.811
90 | G31T G50A | 0.0382
91 | G31T G50C | 0.0159
92 | G31T G50T | 0.103
93 | G31T C42A | 0.809
94 | G31T C42G | 0.809
95 | G31T C42T | 0.822
96 | G31C G50T | 0.108

Row | Variant | fraction ligated
97 | G31C G50C | 0.0327
98 | G31C G50A | 0.057
99 | G31T G34T | 0.793
100 | G31T G34C | 0.771
101 | G31T G34A | 0.775
102 | G31A T49G | 0.229
103 | G31A T49C | 0.136
104 | G31A T49A | 0.214
105 | G31C T43G | 0.761
106 | G31C T43C | 0.811
107 | G31C T43A | 0.807
108 | G31A T45C | 0.0954
109 | G31A T45A | 0.395
110 | G31A T45G | 0.137
111 | G31T A57C | 0.789
112 | G31T A57G | 0.819
113 | G31T A57T | 0.78
114 | G31C C33A | 0.798
115 | G31C C33G | 0.794
116 | G31C C33T | 0.777
117 | G31T A56C | 0.221
118 | G31T A56G | 0.679
119 | G31T A56T | 0.755
120 | G31C A37T | 0.79

Row | Variant | fraction ligated
121 | G31C A37G | 0.817
122 | G31C A37C | 0.769
123 | G31A T32C | 0.811
124 | G31A T32A | 0.809
125 | G31A T32G | 0.837
126 | G31A G34T | 0.796
127 | G31A G34A | 0.804
128 | G31A G34C | 0.769
129 | G31C G47T | 0.0589
130 | G31C G47A | 0.489
131 | G31C G47C | 0.0426
132 | G31T G38A | 0.802
133 | G31T G38C | 0.78
134 | G31T G38T | 0.801
135 | G31T A41G | 0.761
136 | G31T A41C | 0.586
137 | G31T A41T | 0.772
138 | G31C T45A | 0.492
139 | G31C T45C | 0.0406
140 | G31C T45G | 0.0355
141 | G31C T44C | 0.792
142 | G31C T44G | 0.781
143 | G31C T44A | 0.775
144 | G31A T44C | 0.801

Row | Variant | fraction ligated
145 | G31A T44G | 0.819
146 | G31A T44A | 0.818
147 | G31C G46T | 0.784
148 | G31C G46A | 0.797
149 | G31C G46C | 0.732
150 | G31T T44A | 0.768
151 | G31T T44C | 0.782
152 | G31T T44G | 0.764
153 | G31A G38C | 0.798
154 | G31A G38T | 0.798
155 | G31A G38A | 0.796
156 | G31C A57C | 0.788
157 | G31C A57T | 0.793
158 | G31C A57G | 0.807
159 | G31C A48G | 0.389
160 | G31C A48T | 0.0135
161 | G31C A48C | 0.242
162 | G31A C42T | 0.839
163 | G31A C42A | 0.834
164 | G31A C42G | 0.818
165 | G31C G55A | 0.809
166 | G31C G55C | 0.14
167 | G31C G55T | 0.794
